Results published in US20210309709A1 (AKSTON BIOSCIENCES, published 2021).

molecular target: T1, biotinylated human complement component C1q (Sigma-Aldrich) (human, UniProt P02745 23-245; P02746 28-253; P02747 29-245); assay: ELISA, fusion coated, biotinylated human C1q at 1000 ng/mL
T1 construct: Sigma-Aldrich', a protein complex; also called complement component 1q; biotinylated-C1q
T1 sequence (P02745 23-245 limits assumed, chain 1 of 3): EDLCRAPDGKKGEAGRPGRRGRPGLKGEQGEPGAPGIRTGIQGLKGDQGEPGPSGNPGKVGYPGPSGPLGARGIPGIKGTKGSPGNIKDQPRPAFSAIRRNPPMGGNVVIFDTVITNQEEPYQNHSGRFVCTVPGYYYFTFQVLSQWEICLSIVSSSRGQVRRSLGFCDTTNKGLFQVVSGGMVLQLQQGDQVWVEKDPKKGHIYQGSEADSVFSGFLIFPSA
T1 sequence (P02746 28-253 limits assumed, chain 2 of 3): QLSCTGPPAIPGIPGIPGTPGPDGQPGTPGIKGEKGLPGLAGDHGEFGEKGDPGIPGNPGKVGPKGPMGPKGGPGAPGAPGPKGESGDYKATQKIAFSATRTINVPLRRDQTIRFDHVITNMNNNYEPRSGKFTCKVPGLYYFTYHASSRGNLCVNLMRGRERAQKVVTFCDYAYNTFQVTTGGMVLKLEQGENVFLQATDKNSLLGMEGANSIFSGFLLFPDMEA
T1 sequence (P02747 29-245 limits assumed, chain 3 of 3): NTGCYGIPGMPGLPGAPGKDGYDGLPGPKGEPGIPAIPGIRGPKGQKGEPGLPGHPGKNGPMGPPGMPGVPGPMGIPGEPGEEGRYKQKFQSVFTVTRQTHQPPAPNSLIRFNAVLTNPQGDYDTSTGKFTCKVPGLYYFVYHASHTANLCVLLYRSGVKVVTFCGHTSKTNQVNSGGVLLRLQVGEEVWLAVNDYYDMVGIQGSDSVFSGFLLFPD

Row | Binder | OD450 Ratio to SEQ ID NO: 76 [ratio]
1 | insulin-Fc fusion protein of SEQ ID NO: 75 (Fc fusion, HEK293, Protein A; also called hIgG2) FVNQHLCGSHLVEALELVCGERGFHYGGGGGGSGGGGGIVEQCCTSTCSLDQLENYCGGGGGQGGGGQGGGGQGGGGGECPPCPAPPVAGPSVFLFPPKPKDTLMISRTPEVTCVVVDVSHEDPEVQFNWYVDGVEVHNAKTKPREEQFNSTFRVVSVLTVVHQDWLNGKEYKCKVSNKGLPAPIEKTISKTKGQPREPQVYTLPPSREEMTKNQVSLTCLVKGFYPSDIAVEWESNGQPENNYKTTPPMLDSDGSFFLYSKLTVDKSRWQQGNVFSCSVMHEALHNHYTQKSLSLSPG | 0.309

molecular target: T2, biotinylated recombinant human Fc(gamma)RI (R&D Systems) (human, UniProt P12314 16-288); assay: ELISA, fusion coated, biotinylated rhFc(gamma)RI (concentration not clear from the table head)
T2 construct: soluble in ELISA; also called rhFc(gamma)RI; Fc(gamma) receptor I
T2 sequence (P12314 16-288 limits assumed): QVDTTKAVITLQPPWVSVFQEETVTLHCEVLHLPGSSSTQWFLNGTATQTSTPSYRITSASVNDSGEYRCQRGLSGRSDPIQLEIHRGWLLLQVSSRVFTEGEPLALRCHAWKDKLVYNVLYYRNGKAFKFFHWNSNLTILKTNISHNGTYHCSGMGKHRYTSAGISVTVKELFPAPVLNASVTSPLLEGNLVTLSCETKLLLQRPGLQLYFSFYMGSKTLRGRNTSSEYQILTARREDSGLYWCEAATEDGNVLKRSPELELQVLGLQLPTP
Description: (§1) The binding of insulin-Fc fusion proteins to the Fc(gamma)RI at pH 7.4 is conducted using an ELISA assay as follows using human Fc(gamma)RI (i.e., rhFc(gamma)RI). Insulin-Fc fusion proteins are diluted to 10 μg/mL in sodium bicarbonate buffer at pH 9.6 and coated on Maxisorp (Nunc) microtiter plates overnight at 4° C., after which the microplate strips are washed 5 times with PBST (PBS/0.05% Tween-20) buffer and blocked with Superblock blocking reagent (ThermoFisher). Serial dilutions of biotinylated rhFc(gamma)RI (recombinant human Fc(gamma)RI; R&D Systems) are prepared in PBST/10% Superblock buffer from 3000 ng/mL to 4.1 ng/mL and loaded at 100 μL/well onto the microplate strips coated with insulin-Fc fusion protein. The microtiter plate is incubated for 1 hour at room temperature after which time the microplate strips are washed 5 times with PBST and then loaded with 100 μL/well of streptavidin-HRP diluted 1:10000 in PBST/10% Superblock buffer. After incubating for 45 min, the microplate strips are washed again 5 times with PBST. TMB is added to reveal the bound Fc(gamma)RI proteins and is stopped with ELISA stop reagent (Boston Bioproducts). The plate is read in an ELISA plate reader at 450 nm, and the OD450 values (proportional to the binding of rhFc(gamma)RI to insulin-Fc protein) are plotted against log concentrations of rhFc(gamma)RI added to each well to generate binding curves using GraphPad Prism software. For groupings of compounds with somewhat similar curves, the OD450 at one of the higher concentrations, for instance at rhFc(gamma)RI concentrations of 3000 ng/mL, can be used to identify differences between coated insulin-Fc fusion protein compounds. […]

Row | Binder | OD450 nm [OD450] | OD450 nm minus assay background [OD450] | ratio to SEQ ID NO: 36 [ratio]
2 | insulin-Fc fusion protein of SEQ ID NO: 36 (Fc fusion, native N-glycosylation site cNg-NB139, HEK293, Protein A) FVNQHLCGSDLVEALALVCGERGFFYTDPTGGGPRRGIVEQCCHSICSLYQLENYCNGGGGAGGGGDCPKCPAPEMLGGPSVFIFPPKPKDTLLIARTPEVTCVVVDLDPEDPEVQISWFVDGKQMQTAKTQPREEQFNGTYRVVSVLPIGHQDWLKGKQFTCKVNNKALPSPIERTISKARGQAHQPSVYVLPPSREELSKNTVSLTCLIKDFFPPDIDVEWQSNGQQEPESKYRTTPPQLDEDGSYFLYSKLSVDKSRWQRGDTFICAVMHEALHNHYTQESLSHSPG | 0.386 | 0.323 | 1
3 | insulin-Fc fusion protein of SEQ ID NO: 41 (Fc fusion, also called cNg-NB139-D; cNg-D) FVNQHLCGSDLVEALALVCGERGFFYTDPTGGGPRRGIVEQCCHSICSLYQLENYCNGGGGAGGGGDCPKCPAPEMLGGPSVFIFPPKPKDTLLIARTPEVTCVVVDLDPEDPEVQISWFVDGKQMQTAKTQPREEQFDGTYRVVSVLPIGHQDWLKGKQFTCKVNNKALPSPIERTISKARGQAHQPSVYVLPPSREELSKNTVSLTCLIKDFFPPDIDVEWQSNGQQEPESKYRTTPPQLDEDGSYFLYSKLSVDKSRWQRGDTFICAVMHEALHNHYTQESLSHSPG | 0.204 | 0.141 | 0.44
4 | insulin-Fc fusion protein of SEQ ID NO: 40 (Fc fusion, non-glycosylated canine IgGB Fc; also called cNg-NB139-S; cNg-S) FVNQHLCGSDLVEALALVCGERGFFYTDPTGGGPRRGIVEQCCHSICSLYQLENYCNGGGGAGGGGDCPKCPAPEMLGGPSVFIFPPKPKDTLLIARTPEVTCVVVDLDPEDPEVQISWFVDGKQMQTAKTQPREEQFSGTYRVVSVLPIGHQDWLKGKQFTCKVNNKALPSPIERTISKARGQAHQPSVYVLPPSREELSKNTVSLTCLIKDFFPPDIDVEWQSNGQQEPESKYRTTPPQLDEDGSYFLYSKLSVDKSRWQRGDTFICAVMHEALHNHYTQESLSHSPG | 0.14 | 0.077 | 0.24
5 | insulin-Fc fusion protein of SEQ ID NO: 42 (Fc fusion, also called cNg-NB139-K; cNg-K) FVNQHLCGSDLVEALALVCGERGFFYTDPTGGGPRRGIVEQCCHSICSLYQLENYCNGGGGAGGGGDCPKCPAPEMLGGPSVFIFPPKPKDTLLIARTPEVTCVVVDLDPEDPEVQISWFVDGKQMQTAKTQPREEQFKGTYRVVSVLPIGHQDWLKGKQFTCKVNNKALPSPIERTISKARGQAHQPSVYVLPPSREELSKNTVSLTCLIKDFFPPDIDVEWQSNGQQEPESKYRTTPPQLDEDGSYFLYSKLSVDKSRWQRGDTFICAVMHEALHNHYTQESLSHSPG | 0.126 | 0.063 | 0.2

molecular target: T2, biotinylated recombinant human …; assay: ELISA, fusion coated, biotinylated rhFc(gamma)RI at 3000 ng/mL
Description: as §1
Finally, select compounds were tested for their likelihood to interact with the immune system by measuring their Fc(gamma) receptor binding activity according to the procedure of Example 15.

Row | Binder | OD450 nm [OD450] | OD450 nm minus assay background [OD450] | ratio to SEQ ID NO: 36 [ratio]
6 | insulin-Fc fusion protein of SEQ ID NO: 36 (Fc fusion, native N-glycosylation site cNg-NB139, HEK293, Protein A) FVNQHLCGSDLVEALALVCGERGFFYTDPTGGGPRRGIVEQCCHSICSLYQLENYCNGGGGAGGGGDCPKCPAPEMLGGPSVFIFPPKPKDTLLIARTPEVTCVVVDLDPEDPEVQISWFVDGKQMQTAKTQPREEQFNGTYRVVSVLPIGHQDWLKGKQFTCKVNNKALPSPIERTISKARGQAHQPSVYVLPPSREELSKNTVSLTCLIKDFFPPDIDVEWQSNGQQEPESKYRTTPPQLDEDGSYFLYSKLSVDKSRWQRGDTFICAVMHEALHNHYTQESLSHSPG | 0.428 | 0.371 | 1
7 | insulin-Fc fusion protein of SEQ ID NO: 58 (Fc fusion, purified on Protein A or Protein G) FVNQHLCGSHLVEALELVCGERGFHYGGGGGGSGGGGGIVEQCCTSTCSLDQLENYCGGGGGQGGGGQGGGGQGGGGGRCTDTPPCPVPEPLGGPSVLIFPPKPKDILRITRTPEVTCVVLDLGREDPEVQISWFVDGKEVHTAKTQSREQQFNGTYRVVSVLPIEHQDWLTGKEFKCRVNHIDLPSPIERTISKARGRAHKPSVYVLPPSPKELSSSDTVSITCLIKDFYPPDIDVEWQSNGQQEPERKHRMTPPQLDEDGSYFLYSKLSVDKSRWQQGDPFTCAVMHETLQNHYTDLSLSHSPG | 0.253 | 0.196 | 0.53
8 | insulin-Fc fusion protein of SEQ ID NO: 26 (Fc fusion, native N-glycosylation site cNg-NB151) FVNQHLCGSHLVEALELVCGERGFHYGGGGGGSGGGGGIVEQCCTSTCSLDQLENYCGGGGGQGGGGQGGGGQGGGGGDCPKCPAPEMLGGPSVFIFPPKPKDTLLIARTPEVTCVVVDLDPEDPEVQISWFVDGKQMQTAKTQPREEQFNGTYRVVSVLPIGHQDWLKGKQFTCKVNNKALPSPIERTISKARGQAHQPSVYVLPPSREELSKNTVSLTCLIKDFFPPDIDVEWQSNGQQEPESKYRTTPPQLDEDGSYFLYSKLSVDKSRWQRGDTFICAVMHEALHNHYTQESLSHSPG | 0.368 | 0.311 | 0.84
9 | insulin-Fc fusion protein of SEQ ID NO: 62 (Fc fusion, also called cNg-NB151-S) FVNQHLCGSHLVEALELVCGERGFHYGGGGGGSGGGGGIVEQCCTSTCSLDQLENYCGGGGGQGGGGQGGGGQGGGGGDCPKCPAPEMLGGPSVFIFPPKPKDTLLIARTPEVTCVVVDLDPEDPEVQISWFVDGKQMQTAKTQPREEQFSGTYRVVSVLPIGHQDWLKGKQFTCKVNNKALPSPIERTISKARGQAHQPSVYVLPPSREELSKNTVSLTCLIKDFFPPDIDVEWQSNGQQEPESKYRTTPPQLDEDGSYFLYSKLSVDKSRWQRGDTFICAVMHEALHNHYTQESLSHSPG | 0.175 | 0.118 | 0.32
10 | insulin-Fc fusion protein of SEQ ID NO: 61 (Fc fusion, also called cNg-NB151-S, NB119-A) FVNQHLCGSHLVEALELVCGERGFHYGGGGGGSGGGGGIVEQCCTSTCSLDQLENYCGGGGGQGGGGQGGGGQGGGGGDCPKCPAPEMLGGPSVFIFPPKPKDTLLIARTPEVTCVVVALDPEDPEVQISWFVDGKQMQTAKTQPREEQFSGTYRVVSVLPIGHQDWLKGKQFTCKVNNKALPSPIERTISKARGQAHQPSVYVLPPSREELSKNTVSLTCLIKDFFPPDIDVEWQSNGQQEPESKYRTTPPQLDEDGSYFLYSKLSVDKSRWQRGDTFICAVMHEALHNHYTQESLSHSPG | 0.166 | 0.109 | 0.29
11 | insulin-Fc fusion protein of SEQ ID NO: 30 (Fc fusion) FVNQHLCGSHLVEALALVCGERGFHYGGGGGGSGGGGGIVEQCCTSTCSLDQLENYCGGGGGQGGGGQGGGGQGGGGGDCPKCPAPEMLGGPSVFIFPPKPKDTLLIARTPEVTCVVVDLDPEDPEVQISWFVDGKQMQTAKTQPREEQFSGTYRVVSVLPIGHQDWLKGKQFTCKVNNKALPSPIERTISKARGQAHQPSVYVLPPSREELSKNTVSLTCLIKDFFPPDIDVEWQSNGQQEPESKYRTTPPQLDEDGSYFLYSKLSVDKSRWQRGDTFICAVMHEALHNHYTQESLSHSPG | 0.177 | 0.12 | 0.32

molecular target: T2, biotinylated recombinant human …; assay: as above; remark: another data set of the same source
Description: The binding of insulin-Fc fusion proteins to the Fc(gamma)RI at pH 7.4 was conducted using an ELISA assay as follows using human Fc(gamma)RI (i.e., rhFc(gamma)RI). Insulin-Fc fusion proteins were diluted to 10 μg/mL in sodium bicarbonate buffer at pH 9.6 and coated on Maxisorp (Nunc) microtiter plates overnight at 4° C., after which the microplate strips were washed 5 times with PBST (PBS/0.05% Tween-20) buffer and blocked with Superblock blocking reagent (ThermoFisher). […] The plate was read in an ELISA plate reader at 450 nm, and the OD450 values (proportional to the binding of rhFc(gamma)RI to insulin-Fc protein) were plotted against log concentrations of rhFc(gamma)RI added to each well to generate binding curves using GraphPad Prism software. […] In order to compare differences across multiple insulin-Fc fusion proteins run at different times, the human Fc(gamma)RI assay OD450 Ratio was calculated as the OD450 value of a test insulin-Fc fusion protein compound obtained at a biotinylated-Fc(gamma)RI concentration of 3000 ng/mL, divided by the OD450 value of a reference insulin-Fc fusion protein of SEQ ID NO: 76 obtained at a biotinylated-Fc(gamma)RI concentration of 3000 ng/mL.

Row | Binder | OD450 Ratio to SEQ ID NO: 76 [ratio]
12 | insulin-Fc fusion protein of SEQ ID NO: 75 (Fc fusion, HEK293, Protein A; also called hIgG2) FVNQHLCGSHLVEALELVCGERGFHYGGGGGGSGGGGGIVEQCCTSTCSLDQLENYCGGGGGQGGGGQGGGGQGGGGGECPPCPAPPVAGPSVFLFPPKPKDTLMISRTPEVTCVVVDVSHEDPEVQFNWYVDGVEVHNAKTKPREEQFNSTFRVVSVLTVVHQDWLNGKEYKCKVSNKGLPAPIEKTISKTKGQPREPQVYTLPPSREEMTKNQVSLTCLVKGFYPSDIAVEWESNGQPENNYKTTPPMLDSDGSFFLYSKLTVDKSRWQQGNVFSCSVMHEALHNHYTQKSLSLSPG | 0.045
